Assay results from US20200046641A1, “LIPOSOMES FOR THE TREATMENT OF OCULAR DISEASES” (TDC Technology Dedicated to Care srl, priority 2018, published 2020).

System: inflamed eye of male albino rabbits
Test: In vivo treatment of ocular inflammation induced by arachidonic acid sodium salt
Design: species or system rabbit
Settings: 50 μl given 30 minutes after 0.5% arachidonic acid sodium salt; scored 30-210 minutes
Method: Inflammation in the eye of male albino rabbits as described in Example 7 is induced by applying a drop of eye drops containing 0.5% arachidonic acid sodium salt (SA-irritating agent) at time 0. After 30 minutes, the sample under examination is administered to the inflamed eye. Finally, the ocular inflammation index is evaluated at different time points. In the present test, the samples under examination were: • I) 50 μl of free lactoferrin (not encapsulated into the lipid bilayer of liposomes) dissolved in PBS (comparative example); • II) 50 μl of F2 liposomes.
As positive control (C+-comparative), a rabbit administered with SA at time 0, without any administration after 30 minutes, has been used.
The ocular inflammation has been evaluated for each time point at 30, 60, 90, 120, 150, 180 and 210 minutes and the inflammation index has been consequently calculated for each time point according to the tables of the previous Example.

B1: lactoferrin (protein, UniProt P02788 20-710, looked up)
Lactotransferrin: GRRRSVQWCAVSQPEATKCFQWQRNMRKVRGPPVSCIKRDSPIQCIQAIAENRADAVTLDGGFIYEAGLAPYKLRPVAAEVYGTERQPRTHYYAVAVVKKGGSFQLNELQGLKSCHTGLRRTAGWNVPIGTLRPFLNWTGPPEPIEAAVARFFSASCVPGADKGQFPNLCRLCAGTGENKCAFSSQEPYFSYSGAFKCLRDGAGDVAFIRESTVFEDLSDEAERDEYELLCPDNTRKPVDKFKDCHLARVPSHAVVARSVNGKEDAIWNLLRQAQEKFGKDKSPKFQLFGSPSGQKDLLFKDSAIGFSRVPPRIDSGLYLGSGYFTAIQNLRKSEEEVAARRARVVWCAVGEQELRKCNQWSGLSEGSVTCSSASTTEDCIALVLKGEADAMSLDGGYVYTAGKCGLVPVLAENYKSQQSSDPDPNCVDRPVEGYLAVAVVRRSDTSLTWNSVKGKKSCHTAVDRTAGWNIPMGLLFNQTGSCKFDEYFSQSCAPGSDPRSNLCALCIGDEQGENKCVPNSNERYYGYTGAFRCLAENAGDVAFVKDVTVLQNTDGNNNEAWAKDLKLADFALLCLDGKRKPVTEARSCHLAMAPNHAVVSRMDKVERLKQVLLHQQAKFGRNGSDCPDKFCLFQSETKNLLFNDNTECLARLHGKTTYEKYLGPQYVAGITNLKKCSTSPLLEACEFLRK
Treatment of ocular inflammation (ocular inflammation score, FIG. 1): not obtained
